From US20260284207 (published 2026)
Several values for one entry are separate records, joined by “and”; a condition that tells them apart may be missing. Identical values can stand only once. FL = fluorescein (N-terminal fluorescent label)

What was measured:
Assay in all cases: FP
[1] = target: FBXO31 D334N/SKP1 (human, UniProt Q5XUX0)
[2] = target: T1, FBXO31/SKP1 complex (wild type) (human, UniProt Q5XUX0)
[3] = target: T1, FBXO31/SKP1 complex (wild type); remark: listed apart in the source

T1 sequence (Q5XUX0 whole entry, chain 1 of 2): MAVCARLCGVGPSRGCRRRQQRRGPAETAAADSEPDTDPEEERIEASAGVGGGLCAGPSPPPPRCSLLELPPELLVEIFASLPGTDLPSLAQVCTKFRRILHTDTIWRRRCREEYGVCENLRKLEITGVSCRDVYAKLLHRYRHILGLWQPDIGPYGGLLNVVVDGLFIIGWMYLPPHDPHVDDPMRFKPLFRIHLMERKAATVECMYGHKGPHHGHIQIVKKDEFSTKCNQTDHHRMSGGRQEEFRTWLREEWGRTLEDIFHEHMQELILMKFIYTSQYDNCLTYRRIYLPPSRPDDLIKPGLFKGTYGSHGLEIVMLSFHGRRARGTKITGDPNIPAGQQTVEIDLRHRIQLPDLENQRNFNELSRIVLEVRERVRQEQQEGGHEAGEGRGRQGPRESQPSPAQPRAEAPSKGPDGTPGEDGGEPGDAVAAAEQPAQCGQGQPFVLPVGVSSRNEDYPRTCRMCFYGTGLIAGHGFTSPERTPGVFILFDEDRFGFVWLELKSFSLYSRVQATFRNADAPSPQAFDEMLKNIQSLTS
T1 sequence (chain, as listed by the source, chain 2 of 2): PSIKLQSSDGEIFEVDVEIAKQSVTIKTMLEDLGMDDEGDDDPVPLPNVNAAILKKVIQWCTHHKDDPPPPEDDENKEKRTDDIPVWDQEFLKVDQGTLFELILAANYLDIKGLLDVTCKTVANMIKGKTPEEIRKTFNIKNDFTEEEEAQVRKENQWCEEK
Sequence of FBXO31 D334N/SKP1 (Q5XUX0 whole entry D334N, chain 1 of 2): as the sequence (Q5XUX0 whole entry, chain 1 of 2) above, with D334N counted along it
Sequence of FBXO31 D334N/SKP1 (chain, as listed by the source D334N, chain 2 of 2): as the sequence (chain, as listed by the source, chain 2 of 2) above

Binder	binding result [1]	binding result [2]	Kd [3]
{FL}-KAATPTDVRDVDI-OH [FL-CycD1-OH]	no binding	no binding	–
{FL}-KAATPTDVRDVDI-NH2 [FL-CycD1-NH2]	–	–	59 nM
{FL}-KEEDEKGSRASDDFRDLR-NH2 [FL-Pep2-NH2 (amidated model/screening peptide)]	–	–	22 nM and 16 nM
{FL}-KEEDEKGSRASDDFRDLR-OH [FL-Pep2-OH (non-amidated model peptide)]	–	no binding	–
